According to the nanobody polyreactivity screen of Harvey et al. (2022):

Experiment: yeast display, Sf9 membrane polyspecificity reagent, FACS + sequencing; frameworks hold sequencing errors
Outline: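 A nanobody's polyreactivity label depends on the gate it was sorted from. Yeast display cells were stained with 10% biotinylated, detergent-solubilized Sf9 membrane reagent for 1 hour at 4 °C, enriched on streptavidin microbeads and sorted by FACS. The low and high (top ~1%) gates were set on anti-HA fluorescence for expression and streptavidin fluorescence for reagent binding.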

Sequence: QVQLVESGGGLVQAGGSLRLSCAASGLIFYRYAMGRYRQAPRKERELVAAISSSGGSTYYADSVKGRFTISRDNAKNTVYLQMNSLKPEDTAVYYCSARPSTHGYKYGYWGQGTQVTVSS
- polyreactivity (PSR sort gate): high polyreactivity

Sequence: QVQLVESGGGLVQAGGSLRLSCAASGLIFYRYAMGWYRQAPGKERELVAAISSSGGSTYYADSVKGRFTISRDNAKNTVYLQMNSLKPDDTAVYYCAARPSTHGYKYGYWGQGTQVTVSS
- polyreactivity (PSR sort gate): high polyreactivity

Sequence: QVQLVESGGGLVQAGGSLRLSCAASGLIFYRYAMGWYRQAPGKERELVAVITRSGGNTNYADSVKGRFTISRDNAKNTVYLQMNSLKPEDTAVYYCATRGIWKKVPYYYWGQGTQVTVSS
- polyreactivity (PSR sort gate): high polyreactivity

Sequence: QVQLVESGGGLVQAGGSLRLSCAASGLIFYSYAMGWYRQAPGKERELVAAISKRGGSTYYADSVKGRFTISRDNAKNTVYLQMNSLKPEDTAVYYCAAVIHGSSQYYGGTYGRYYWGQGTQVTVSS
- polyreactivity (PSR sort gate): high polyreactivity

Sequence: QVQLVESGGGLVQAGGSLRLSCAASGLIFYYNAMGWYRPAPGKERELVAAISWSGGSTYYADSVKGRFTISRDNAKNTVYLQMNSLKPEDTAVYYCNADYHSVRRDYWGQGTQVTVSS
- polyreactivity (PSR sort gate): low polyreactivity

Sequence: QVQLVESGGGLVQAGGSLRLSCAASGLIFYYNAMGWYRQAPGKERELVAAISTGGSTNYADSVKGRFTISRDNAKNTVYLQMNSLKPEDTAVYYCAAGTRNPYGYKMYYWGQGTQVTVSS
- polyreactivity (PSR sort gate): high polyreactivity

Sequence: QVQLVESGGGLVQAGGSLRLSCAASGLIFYYNAMGWYRQAPGKERELVATIRGSGSSTYYADSVKGRFTISRDNAKNTVYLQMNSLKPEDTAVYYCAAKGYRCFRHGGYYFKFDYWGQGTQVTVSS
- polyreactivity (PSR sort gate): high polyreactivity

Sequence: QVQLVESGGGLVQAGGSLRLSCAASGLIIPFYAMGWYRQAPGKERELVAAISWSAGSTYYADSVKGRFTISRDNAKNTVYLQMNCLKPEDTAVYYCAATAYYYYDYDYWGQGTQVTVSS
- polyreactivity (PSR sort gate): low polyreactivity

Sequence: QVQLVESGGGLVQAGGSLRLSCAASGLIIRYYAMGWYRQARGKERELVAAISYNGGSTYYADSVKGRFTISRDNAKNTVYLQMNSLKPEDTAVYYCAARLYGRYGYWGQGTQVTVSS
- polyreactivity (PSR sort gate): high polyreactivity

Sequence: QVQLVESGGGLVQAGGSLRLSCAASGLIISWYAMGWNRQEPGTERELVAAISSGGSTTYADSVKGRFTISRDNAKNTVYLQMNSLKPEDTAVYYCNADQVFGYNYWGQGTQLTVSS
- polyreactivity (PSR sort gate): high polyreactivity

Sequence: QVQLVESGGGLVQAGGSLRLSCAASGLIIWLYTMGWYRQAPGKERELVAAIDWSGGSTYYADSVKGRFTISRDNAKNTVYLQMNSLKPEYTAVYYCAADPEPSYRFDYWGQGTQVTVSS
- polyreactivity (PSR sort gate): low polyreactivity

Sequence: QVQLVESGGGLVQAGGSLRLSCAASGLILKNYAMGWYRQAPWKERELVAAITRSGGSTYYADSVKGRFTISRDNAKNTVYLQMNSLKPEDTAVYYCAARNPSGKGRYDYRGQGTQVTVSS
- polyreactivity (PSR sort gate): high polyreactivity

Sequence: QVQLVESGGGLVQAGGSLRLSCAASGLILNYYTMGWYRQAPGKERELVATISSSTGSTYYADSVKGRFTISRDNAKNTVYLQMNSLKPEDTAVYYCAADHWSYWQIYDFWGQGTQVTVSS
- polyreactivity (PSR sort gate): low polyreactivity

Sequence: QVQLVESGGGLVQAGGSLRLSCAASGLILRKYAMGWYRQAPGKEREFVAAITQTGSRTYYADSVKVRFTISRDNAKYTVYFQMNSLIPEDTAVYYCNAVNYRSSRDSGYWGQGTQVTVSS
- polyreactivity (PSR sort gate): high polyreactivity

Sequence: QVQLVESGGGLVQAGGSLRLSCAASGLILRRYAMGWYRQAPGKERELVAAITSGGRTYYADSVKGRFTISRDNAKNTVYLQMNSLKPEDTAVYYCNAVKLVRHTTPYDYWGQGTQVTVSS
- polyreactivity (PSR sort gate): high polyreactivity

Sequence: QVQLVESGGGLVQAGGSLRLSCAASGLILSDYVMGWYRQAPGKEREFVAAITSTGGSTYYADSVKGRFTISRDNAKNTVYLQMNSLKPEDTAVYYCAVRIHFPFPRRYYYWGQGTQVTVSS
- polyreactivity (PSR sort gate): high polyreactivity

Sequence: QVQLVESGGGLVQAGGSLRLSCAASGLILYNYAMGWYRQAPGKERELVAAISRSGGSTYYADSVKGRFTISRDNAKNTVYLQMNSLKPEDTAVYYCKVGYGRGSTIGGYDYWGQGTQVTVSS
- polyreactivity (PSR sort gate): high polyreactivity

Sequence: QVQLVESGGGLVQAGGSLRLSCAASGLISDRNAMGWYRQAPGKERELVASIRSGGSTYYADSVKGRFTISRDNAKNTVYLQMNSQKPEDTAVYYCAAGGGHTPVSYYLVPYMDYWGQGTQVTVSS
- polyreactivity (PSR sort gate): low polyreactivity

Sequence: QVQLVESGGGLVQAGGSLRLSCAASGLISRRNAMGWYRQAPGKERELVAAISTGSSTNYADSVKGRFTISRDNAKNTVYLQMNSLKPEDTAVYYCAATQYWWSTLGIRDDYWGQGSQVTVSS
- polyreactivity (PSR sort gate): low polyreactivity

Sequence: QVQLVESGGGLVQAGGSLRLSCAASGLISSINAMGWYRQAPGKERELVATITSGGSTYYADSVKGRFTISRDNAKNTVYLQMNSLKPEDTAVYYCAARSSVRAYYSWGHGTQVTVSS
- polyreactivity (PSR sort gate): high polyreactivity

Sequence: QVQLVESGGGLVQAGGSLRLSCAASGLNFARNAMGWYRQAPGKERELVAAISSSGNTYADSVKGRFTISRDNAKNTVYLQMNSLKPEDTAVYYCAADYVRWGQRKRSRYYYWGQGTQVTVSS
- polyreactivity (PSR sort gate): high polyreactivity

Sequence: QVQLVESGGGLVQAGGSLRLSCAASGLPFRDYAMGWYRQAPGTERELVAAISDGDDSTSYADSVKGRFTSSRDNAKTTGYLQMNSQNPEDTAVYDCAPYLSDPDFLAGIYGLYNYWGQGTQVTVSS
- polyreactivity (PSR sort gate): low polyreactivity

Sequence: QVQLVESGGGLVQAGGSLRLSCAASGLSFGDYTMGWYRQAPGKERELVAAITGSGASTYYADSVKGRFTISRDNAKNTVYLQMTRLKPEDTAGYYCAAERTPSYRAYDYWGQATQVTVSS
- polyreactivity (PSR sort gate): low polyreactivity

Sequence: QVQLVESGGGLVQAGGSLRLSCAASGLSFPLNAMGWYRPAPGKERQLVAAITYSGGGTYYADSVKGRFTISRDTAKNTGYLQMNSLKTEDTAVYYCAADGSVSYYTYYYWGQGTQVTVSS
- polyreactivity (PSR sort gate): low polyreactivity

Sequence: QVQLVESGGGLVQAGGSLRLSCAASGLTCASYVMGWYRQAPGKERELVAAISSSGDSTYYADSVKGRFTISRDNAKNTFYLEMNSLKPEDTAVYYCASNDYVWGQGTQVTVSS
- polyreactivity (PSR sort gate): low polyreactivity

Sequence: QVQLVESGGGLVQAGGSLRLSCAASGLTCYYYARGLYRQAPGKERELVADISSGGSTKYADSVKGRFTISRDNAKNTVYLQMNSLKPEDTAVYYCATGYFCGFRYRPYYYWGQGTQVTVSS
- polyreactivity (PSR sort gate): high polyreactivity

Sequence: QVQLVESGGGLVQAGGSLRLSCAASGLTFADNTMGWYRQAPGKERELVAAIDWSGGGTDYADSVKGRFTISRDNAKNTVYLQMNSLKPEDTAVYYCNAERTSWEDDYWGQGTQVTVSS
- polyreactivity (PSR sort gate): low polyreactivity

Sequence: QVQLVESGGGLVQAGGSLRLSCAASGLTFAGNAMGWYRQAPGKEREFVATITWSDGSTRYADSVKGRFTISRDNAKNTVYLQMNSLKPEDTAVYYCNTQYPDYFYEFNYWGQGTQVTVSS
- polyreactivity (PSR sort gate): low polyreactivity

Sequence: QVQLVESGGGLVQAGGSLRLSCAASGLTFAGYAMGWYRQAPGKERELVAAISSGGRTNYADSVKGRFTISRDNAKNTVYLHMNSLKPADTAVYYCAARISTHAPHRRLTYEYWGQGTQVTVSS
- polyreactivity (PSR sort gate): low polyreactivity

Sequence: QVQLVESGGGLVQAGGSLRLSCAASGLTFAYNAMGWYRQAPGKARQLVASINWSDSSTYYADSVKGRFTISRDNAKNTVYLQMHSLKPEDTEVYYCAADAYYVGQGYDYGGQGTQVTVSS
- polyreactivity (PSR sort gate): low polyreactivity

Sequence: QVQLVESGGGLVQAGGSLRLSCAASGLTFAYYAMGWYIQAPGKERELVAAITWNGGSTYYADSVKGRFTISRDNSKNTVYLQMNSLKPEDTAVYYCAASWGYCYSGRFDYWGQGTEVTVSS
- polyreactivity (PSR sort gate): high polyreactivity

Sequence: QVQLVESGGGLVQAGGSLRLSCAASGLTFAYYDMGWYRQAPGKERELVAAITSGGTTNYADSVKGRFTISRDNAKNTVYLQMNSLKPEDTAVYYCNADYYSRIVGVRIYDYWGQGTQVTVSS
- polyreactivity (PSR sort gate): low polyreactivity

Sequence: QVQLVESGGGLVQAGGSLRLSCAASGLTFDEYAMGWYRQPPGKERELVARITQSGGSTYYADSVKGRFTISRDNAKNTVYLQMNSLKPEDTAVYYCNAGAPARYWWEGDYWGQGTQVTVSS
- polyreactivity (PSR sort gate): high polyreactivity

Sequence: QVQLVESGGGLVQAGGSLRLSCAASGLTFDSNVMGWYRQAPGKERELVAAITSSGRTYYADSVKGRFTISRDNEKNTVYLQMNSLKPEDTAVYYCAARNLAYTRKGYYYWGQGTQVTVSS
- polyreactivity (PSR sort gate): high polyreactivity

Sequence: QVQLVESGGGLVQAGGSLRLSCAASGLTFDSNVMRWYRQAHGKEMELVAAITSSGRTYYADSVKGRFTISRDNAKNTFYLQMNSLKPEDTAVYYCAARNLAYTRKGYYYWGQGTQVTVSS
- polyreactivity (PSR sort gate): high polyreactivity

Sequence: QVQLVESGGGLVQAGGSLRLSCAASGLTFDTYAMGWYRQAPGKERELVAAISICGRTNYADSVKGRFTISRDNAKNTVYLQMNSLKPQDTAVYYCAVGAVVPGRRRRTYYYWGQGTQVTVSS
- polyreactivity (PSR sort gate): high polyreactivity

Sequence: QVQLVESGGGLVQAGGSLRLSCAASGLTFDVYTMGWYRQAPGKERELVAGITSGGSTDYADSVKGRFTISRDNAKNTVYLQMNSLKPEDTAVYYCNKPFPYYPDGPNGYDYWGQGTQVTVSS
- polyreactivity (PSR sort gate): low polyreactivity

Sequence: QVQLVESGGGLVQAGGSLRLSCAASGLTFDWNTMGWYRQAPGKERELVATITYTGGSTYYADSVKGRFTISRDNAKNTVYLQMNSLKPEDTAVYFCAARRTRYRSYSRVRYTYDYWGQGTQVTVSS
- polyreactivity (PSR sort gate): high polyreactivity

Sequence: QVQLVESGGGLVQAGGSLRLSCAASGLTFDWYTMGWYRQAPGKERELVATINSGGSTDYADSVKGRFTISRDNAKNTVYLQMNSLKPEDTAVYYCNAEYGYSGVGDDYWGQGTQVTVSS
- polyreactivity (PSR sort gate): low polyreactivity

Sequence: QVQLVESGGGLVQAGGSLRLSCAASGLTFDYYAMGWSRQAPGKERELVAAITSSGGRTYYADSVKGRFTISRDNAKNTVYLQMNSLKPEDTAVYYCAKRDSYYNGVGYWGQGTQVTVSS
- polyreactivity (PSR sort gate): low polyreactivity

Sequence: QVQLVESGGGLVQAGGSLRLSCAASGLTFDYYAMGWYRQAPGKERELVAAIDWSGGSTYYADSVKGRFTISRDNAKNTVYLQMNSLKPEDTAVYYCATESDDSGMDYWGQGTQVTVSS
- polyreactivity (PSR sort gate): low polyreactivity

Sequence: QVQLVESGGGLVQAGGSLRLSCAASGLTFDYYDRGGYRQAPGKERELVASITWRGSSTYYADSVKGRFTISRDNAKNTVYLQMNSLKPEDTAVYYCAARPQHFDLDLAYSGFDYWGQGTQVTVSS
- polyreactivity (PSR sort gate): high polyreactivity

Sequence: QVQLVESGGGLVQAGGSLRLSCAASGLTFDYYVMGWYRQAPGKERELVATISWSGDITYYADSVKGRFTISRDNAKNTVYLQMNSLKPEDTAVYYCAADYLDSTYGYVYGWDDYWGQGTQVTVSS
- polyreactivity (PSR sort gate): low polyreactivity
